Experimental data from patent US20210032352A1 (ANTERA THERAPEUTICS, published 2021).

Assays:
[1] = target: LRP6 on HEK293/HEK293T reporter cells (UniProt O75581 20-1613, limits assumed); experiment: cell-based or functional assay
[2] = target: T1, human LRP6 ECD, Fc-tagged (human, UniProt O75581 20-1370); experiment: kinetic table (called BLI in paragraph 170); the row labels kd and ka are interchanged on the sheet: the KD row equals the 10^-3 row divided by the 10^5 row
T1 construct: extracellular domain; Bought; also called LRP co-receptor; not shown: Fc tag of the purchased fusion
T1 sequence (looked up): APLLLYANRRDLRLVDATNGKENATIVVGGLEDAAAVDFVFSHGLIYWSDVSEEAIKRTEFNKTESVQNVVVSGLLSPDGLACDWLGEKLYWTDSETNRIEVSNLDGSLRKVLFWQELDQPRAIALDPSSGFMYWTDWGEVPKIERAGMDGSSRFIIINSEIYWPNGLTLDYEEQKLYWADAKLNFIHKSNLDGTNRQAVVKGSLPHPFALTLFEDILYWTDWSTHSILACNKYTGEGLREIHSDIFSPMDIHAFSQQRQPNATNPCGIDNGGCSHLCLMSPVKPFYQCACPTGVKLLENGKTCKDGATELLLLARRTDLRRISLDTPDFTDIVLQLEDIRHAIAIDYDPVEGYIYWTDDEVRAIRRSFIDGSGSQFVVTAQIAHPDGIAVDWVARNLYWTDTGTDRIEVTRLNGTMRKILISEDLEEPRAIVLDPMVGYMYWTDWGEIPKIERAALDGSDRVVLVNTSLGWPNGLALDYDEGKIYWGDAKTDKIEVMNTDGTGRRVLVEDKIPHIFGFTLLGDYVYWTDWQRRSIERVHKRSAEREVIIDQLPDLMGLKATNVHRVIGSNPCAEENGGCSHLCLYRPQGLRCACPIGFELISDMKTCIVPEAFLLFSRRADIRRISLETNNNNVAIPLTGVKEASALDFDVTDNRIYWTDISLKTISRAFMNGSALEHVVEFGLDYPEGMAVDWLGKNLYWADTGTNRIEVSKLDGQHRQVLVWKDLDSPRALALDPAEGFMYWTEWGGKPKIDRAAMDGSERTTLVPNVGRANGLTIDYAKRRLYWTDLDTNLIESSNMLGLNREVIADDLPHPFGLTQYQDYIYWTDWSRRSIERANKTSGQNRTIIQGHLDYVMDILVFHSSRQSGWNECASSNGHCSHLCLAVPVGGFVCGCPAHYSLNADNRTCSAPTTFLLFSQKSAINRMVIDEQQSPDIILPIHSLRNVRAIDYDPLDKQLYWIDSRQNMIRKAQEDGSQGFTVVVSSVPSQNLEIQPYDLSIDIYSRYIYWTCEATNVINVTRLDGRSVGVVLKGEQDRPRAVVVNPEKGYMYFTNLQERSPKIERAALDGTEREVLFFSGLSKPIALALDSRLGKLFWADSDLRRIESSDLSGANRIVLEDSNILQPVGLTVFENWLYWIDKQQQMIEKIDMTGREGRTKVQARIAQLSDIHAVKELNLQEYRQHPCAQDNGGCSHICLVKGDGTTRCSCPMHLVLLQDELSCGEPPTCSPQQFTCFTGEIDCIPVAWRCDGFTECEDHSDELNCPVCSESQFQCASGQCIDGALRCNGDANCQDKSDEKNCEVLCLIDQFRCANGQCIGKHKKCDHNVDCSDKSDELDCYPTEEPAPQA

FZD7 CRD, Fc-tagged = FZD7 CRD, Fc-tagged (human, UniProt O75084 33-185); experiment: as above
FZD1 CRD, Fc-tagged = target: T2, FZD1 CRD, Fc-tagged (human, UniProt Q9UP38 70-250); experiment: as above
T2 construct: domain: CRD; Bought; not shown: Fc tag of the purchased fusion
T2 sequence (Q9UP38 70-250): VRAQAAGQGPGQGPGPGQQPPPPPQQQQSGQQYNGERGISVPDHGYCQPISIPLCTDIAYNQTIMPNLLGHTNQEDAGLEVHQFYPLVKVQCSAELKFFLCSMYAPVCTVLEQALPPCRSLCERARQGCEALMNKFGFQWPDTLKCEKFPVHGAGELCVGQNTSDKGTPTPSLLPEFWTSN

FZD2 CRD, Fc-tagged = target: T3, FZD2 CRD, Fc-tagged (human, UniProt Q14332 24-190); experiment: as above
T3 construct: domain: CRD; Bought; not shown: Fc tag of the purchased fusion

[3] = target: T1, human LRP6 ECD, Fc-tagged; experiment: BLI kinetics, human LRP6 ECD

- EC50 of activation of a LEF/TCF reporter gene in HEK293T cells [1]: ~5 nM
- ß-catenin luciferase reporter assay in HEK293 cells, activation over background [1]: ~400 fold over background
- koff [2]: 0.00181 s⁻¹
- kon [2]: 152000 M⁻¹ s⁻¹
- koff (FZD7 CRD, Fc-tagged): 2.9e-05 s⁻¹
- kon (FZD7 CRD, Fc-tagged): 509000 M⁻¹ s⁻¹
- koff (FZD1 CRD, Fc-tagged): < 1e-06 s⁻¹
- kon (FZD1 CRD, Fc-tagged): 395000 M⁻¹ s⁻¹
- koff (FZD2 CRD, Fc-tagged): 1.9e-05 s⁻¹
- kon (FZD2 CRD, Fc-tagged): 479000 M⁻¹ s⁻¹
- Kd [3]: 12 nM
B1: F^P+P-L6^1+3 (5019-K/H-2539-2542) (bispecific antibody)
chain 1: EVQLVESGGGLVQPGGSLRLSCAASGFNIGSSSIHWVRQAPGKGLEWVASIYSAFASTSYADSVKGRFTISADTSKNTAYLQMNSLRAEDTAVYYCARYHFPFGFALDYWGQGTLVTVSSGGGGSDIQMTQSPSSLSASVGDRVTITCRASQSVSSAVAWYQQKPGKAPKLLIYSASSLYSGVPSRFSGSRSGTDFTLTISSLQPEDFATYYCQQGVYLFTFGQGTKVEIKLEDKTHTKVEPKTSDKTHTCPPCPAPELLGGPSVFLFPPKPKDTLMISRTPEVTCVVVDVSHEDPEVKFNWYVDGVEVHNAKTKPREEQYNSTYRVVSVLTVLHQDWLNGKEYKCKVSNKALPAPIEKTISKAKGQPREPMVFDLPPSREEMTKNQVSLWCMVKGFYPSDIAVEWESNGQPENNYKTTPPVLDSDGSFFLYSKLTVDKSRWQQGNVFSCSVMHEALHNHYTQKSLSLSPGKSGSETPGTSESATPESGGGEVQLVESGGGLVQPGGSLRLSCAASGFNISYSSIHWVRQAPGKGLEWVAYISSYYGYTYYADSVKGRFTISADTSKNTAYLQMNSLRAEDTAVYYCARAHYFPWAGAMDYWGQGTLVTVSSGGGGSDIQMTQSPSSLSASVGDRVTITCRASQSVSSAVAWYQQKPGKAPKLLIYSASSLYSGVPSRFSGSRSGTDFTLTISSLQPEDFATYYCQQYYWPITFGQGTKVEIK
chain 2: EVQLVESGGGLVQPGGSLRLSCAASGFNIGSSSIHWVRQAPGKGLEWVASIYSAFASTSYADSVKGRFTISADTSKNTAYLQMNSLRAEDTAVYYCARYHFPFGFALDYWGQGTLVTVSSGGGGSDIQMTQSPSSLSASVGDRVTITCRASQSVSSAVAWYQQKPGKAPKLLIYSASSLYSGVPSRFSGSRSGTDFTLTISSLQPEDFATYYCQQGVYLFTFGQGTKVEIKLEDKTHTKVEPKSSDKTHNCPPCPAPELLGGPSVFLFPPKPKDTLMISRTPEVTCVVVDVSHEDPEVKFNWYVDGVEVHNAKTKPREEQYNSTYRVVSVLTVLHQDWLNGKEYKCKVSNKALPAPIEKTISKAKGQPREPQVYTLPPIRELMTSNQVSLSCAVKGFYPSDIAVEWESNGQPENNYKTTPPVLDSDGSFFLVSKLTVDKSRWQQGNVFSCSVMHEALHNHYTQKSLSLSPGKSGSETPGTSESATPESGGGEVQLVESGGGLVQPGGSLRLSCAASGFNISSYYIHWVRQAPGKGLEWVASIYSSYGYTSYADSVKGRFTISADTSKNTAYLQMNSLRAEDTAVYYCARTVRGSKKPYFSGWAMDYWGQGTLVTVSSGGGGSDIQMTQSPSSLSASVGDRVTITCRASQSVSSAVAWYQQKPGKAPKLLIYSASSLYSGVPSRFSGSRSGTDFTLTISSLQPEDFATYYCQQYSWGPFTFGQGTKVEIK
